# Experimental data from paper PMC5714165 (Nucleic Acids Research, 2017).
# T1: eIF2Bβ (human, UniProt P49770 1-351)
# T1 sequence: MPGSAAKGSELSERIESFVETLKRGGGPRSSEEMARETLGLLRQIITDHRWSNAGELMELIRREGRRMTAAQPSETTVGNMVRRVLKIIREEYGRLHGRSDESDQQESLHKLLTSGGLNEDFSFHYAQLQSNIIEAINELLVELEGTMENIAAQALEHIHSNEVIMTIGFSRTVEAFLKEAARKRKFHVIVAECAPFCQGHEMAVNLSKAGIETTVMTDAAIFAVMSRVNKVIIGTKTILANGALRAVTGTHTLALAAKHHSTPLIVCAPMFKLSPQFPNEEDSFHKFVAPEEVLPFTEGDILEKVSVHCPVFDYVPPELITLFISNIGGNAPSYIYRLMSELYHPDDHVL
# Legend:
# [1] = target: eIF2α-NTD_(S51D) (phosphomimetic N-terminal domain of eIF2α, aa 1–184) (human); assay: fluorescence polarisation
# eIF2Bβ = target: T1, eIF2Bβ; assay: SEC
# Chain of eIF2Breg (eIF2B regulatory subcomplex of eIF2Bα, β and δ), reconstituted from individual subunits (Q9UI10 whole entry, stated change not applied, one chain of several): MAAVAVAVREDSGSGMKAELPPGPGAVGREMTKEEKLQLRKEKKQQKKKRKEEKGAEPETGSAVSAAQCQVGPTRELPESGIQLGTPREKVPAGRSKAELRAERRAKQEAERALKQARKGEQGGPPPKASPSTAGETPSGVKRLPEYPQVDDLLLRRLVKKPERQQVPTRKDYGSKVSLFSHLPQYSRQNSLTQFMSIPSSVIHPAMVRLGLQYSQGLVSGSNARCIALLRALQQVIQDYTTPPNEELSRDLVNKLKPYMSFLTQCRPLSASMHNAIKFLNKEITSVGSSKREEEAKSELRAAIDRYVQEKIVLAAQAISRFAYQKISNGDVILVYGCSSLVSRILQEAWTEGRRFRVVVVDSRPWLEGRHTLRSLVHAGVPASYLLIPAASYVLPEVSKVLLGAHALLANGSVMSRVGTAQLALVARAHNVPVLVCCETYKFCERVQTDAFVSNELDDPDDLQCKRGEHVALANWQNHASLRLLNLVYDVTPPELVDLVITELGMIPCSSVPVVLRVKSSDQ
fold higher affinity than for WT eIF2α-NTD [1],binding result (eIF2Bβ),Molecule
< 2 fold,–,"eIF2Breg (eIF2B regulatory subcomplex of eIF2Bα, β and δ), reconstituted from individual subunits (from UniProt Q14232;P49770;Q9UI10)"
–,binds,eIF2Bα_(I301E/L305D) mutant (designated as eIF2Bα in the paper) (natural protein) MDDKELIEYFKSQMKEDPDMASAVAAIRTLLEFLKRDKGETIQGLRANLTSAIETLCGVDSSVAVSSGGELFLRFISLASLEYSDYSKCKKIMIERGELFLRRISLSRNKIADLCHTFIKDGATILTHAYSRVVLRVLEAAVAAKKRFSVYVTESQPDLSGKKMAKALCHLNVPVTVVLDAAVGYIMEKADLVIVGAEGVVENGGIINKIGTNQMAVCAKAQNKPFYVVAESFKFVRLFPLNQQDVPDKFKYKADTLKVAQTGQDLKEEHPWVDYTAPSLITLLFTDLGVLTPSAVSDELEKLYD
